T1: monkey CD3ε-his (Cat #: 90047-C08H, SinoBiological, China) (monkey, UniProt Q95LI5 22-117)
T1 construct: Bought protein; also called monkey CD3ε protein; recombinant monkey CD3ε
T1 sequence: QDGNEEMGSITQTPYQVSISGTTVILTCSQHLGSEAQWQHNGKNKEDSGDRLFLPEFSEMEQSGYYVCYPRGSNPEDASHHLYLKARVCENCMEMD

T2: human CD32A (HEK293A/human CD32A cells) (human, UniProt P12318 34-317)
T2 construct: Stably expressed on HEK293A cells; also called FcγRIIA
T2 sequence: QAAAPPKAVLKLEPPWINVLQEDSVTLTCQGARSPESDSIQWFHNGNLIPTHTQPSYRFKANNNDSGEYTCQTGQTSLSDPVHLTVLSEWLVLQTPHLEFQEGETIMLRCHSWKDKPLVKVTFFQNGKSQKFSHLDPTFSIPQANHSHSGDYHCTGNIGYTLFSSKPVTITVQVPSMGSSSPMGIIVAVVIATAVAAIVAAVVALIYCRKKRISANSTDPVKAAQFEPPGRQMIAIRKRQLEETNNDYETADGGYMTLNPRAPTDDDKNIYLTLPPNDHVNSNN

T3: human CD32B (HEK293A/human CD32B cells) (human, UniProt P31994 43-310)
T3 construct: Stably expressed on HEK293A cells; also called FcγRIIB
T3 sequence: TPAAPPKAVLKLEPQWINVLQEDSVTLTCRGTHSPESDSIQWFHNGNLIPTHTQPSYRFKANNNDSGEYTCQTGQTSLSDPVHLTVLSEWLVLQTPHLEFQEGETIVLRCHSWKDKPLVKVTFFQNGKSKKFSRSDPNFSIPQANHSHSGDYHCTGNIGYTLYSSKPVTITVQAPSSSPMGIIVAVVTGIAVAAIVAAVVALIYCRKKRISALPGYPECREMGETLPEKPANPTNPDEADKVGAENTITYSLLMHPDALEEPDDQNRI


Experiments:
[1] = biological target: T4, human TCR/CD3 complex on cell surfaces (primary human CD4+ T cells; Jurkat cells; human PBMCs) (human, UniProt P07766 23-207); test: FACS on primary human T cells, PE goat anti-human IgG, MFI
T4 construct: whole, on cells; Native complex on cells; the γ, δ, ζ and TCR chains of the complex are present on the cells too; also called human CD3 complexes on cell surfaces; human CD3+ T cells
T4 sequence (P07766 23-207, one chain of several): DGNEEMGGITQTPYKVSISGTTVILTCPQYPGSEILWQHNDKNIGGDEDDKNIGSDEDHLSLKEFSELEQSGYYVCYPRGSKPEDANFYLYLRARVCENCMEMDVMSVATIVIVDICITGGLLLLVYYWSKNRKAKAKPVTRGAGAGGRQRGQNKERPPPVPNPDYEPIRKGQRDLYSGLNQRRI

[2] = biological target: T5, human CD3ε-his (Cat #:10977-H08s, SinoBiological, China) (human, UniProt P07766 23-126); test: ELISA: plate coated with human CD3ε-his, antibody titrated, HRP goat anti-human IgG, OD450
T5 construct: Bought protein; also called human CD3ε protein; recombinant human CD3ε; not shown: his tag
T5 sequence (P07766 23-126 limits assumed): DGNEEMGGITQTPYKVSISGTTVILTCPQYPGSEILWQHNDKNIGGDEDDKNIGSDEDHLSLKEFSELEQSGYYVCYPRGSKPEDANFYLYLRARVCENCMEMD

[3] = biological target: T1, monkey CD3ε-his (Cat #: 90047-C08H, …); test: ELISA: plate coated with monkey CD3ε-his, antibody titrated, HRP goat anti-human IgG, OD450
[4] = biological target: T5, human CD3ε-his (Cat #:10977-H08s, …); test: ELISA: plate coated with human CD3ε-his, antibody titrated, HRP goat anti-human IgG, OD 450
[5] = biological target: T1, monkey CD3ε-his (Cat #: 90047-C08H, …); test: ELISA: plate coated with monkey CD3ε-his, antibody titrated, HRP goat anti-human IgG, OD 450
[6] = biological target: T4, human TCR/CD3 complex on cell surfaces …; test: FACS on Jurkat cells, PE goat anti-human IgG, MFI
[7] = biological target: T6, human CD64 (HEK293A/human CD64 cells) (human, UniProt P12314 16-374); test: FACS on HEK293A/human CD64 cells, PE F(ab')2 goat anti-human IgG Fc, MFI; bars at 40, 8, 1.6, 0.32 and 0.064 µg/mL
T6 construct: Stably expressed on HEK293A cells; also called FcγRI
T6 sequence (P12314 16-374 limits assumed): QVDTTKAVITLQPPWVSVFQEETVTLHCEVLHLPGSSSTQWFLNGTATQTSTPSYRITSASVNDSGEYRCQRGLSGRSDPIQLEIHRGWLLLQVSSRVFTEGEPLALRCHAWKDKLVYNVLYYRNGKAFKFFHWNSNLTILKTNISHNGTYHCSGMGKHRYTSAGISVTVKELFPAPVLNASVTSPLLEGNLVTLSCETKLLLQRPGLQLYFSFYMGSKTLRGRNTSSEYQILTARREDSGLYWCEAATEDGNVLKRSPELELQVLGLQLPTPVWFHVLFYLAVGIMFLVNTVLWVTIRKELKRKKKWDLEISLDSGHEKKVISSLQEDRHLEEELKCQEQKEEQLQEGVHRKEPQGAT

[8] = biological target: T7, human CD16A (HEK293A/human CD16A cells) (human, UniProt P08637 17-254); test: FACS on HEK293A/human CD16A cells, PE F(ab')2 goat anti-human IgG Fc, MFI; bars at 40, 8, 1.6, 0.32 and 0.064 µg/mL
T7 construct: Stably expressed on HEK293A cells; also called FcγRIIIA
T7 sequence (P08637 17-254 F176V limits assumed): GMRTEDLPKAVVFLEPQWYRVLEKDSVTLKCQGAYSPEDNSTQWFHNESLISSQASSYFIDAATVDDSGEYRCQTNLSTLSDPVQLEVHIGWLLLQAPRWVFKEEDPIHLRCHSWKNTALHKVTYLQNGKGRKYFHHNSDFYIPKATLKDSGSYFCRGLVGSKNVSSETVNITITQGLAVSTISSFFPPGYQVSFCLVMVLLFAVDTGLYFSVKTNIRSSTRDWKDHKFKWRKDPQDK

[9] = biological target: T2, human CD32A (HEK293A/human CD32A cells); test: FACS on HEK293A/human CD32A cells, PE F(ab')2 goat anti-human IgG Fc, MFI; bars at 40, 8, 1.6, 0.32 and 0.064 µg/mL
[10] = biological target: T3, human CD32B (HEK293A/human CD32B cells); test: FACS on HEK293A/human CD32B cells, PE F(ab')2 goat anti-human IgG Fc, MFI; bars at 40, 8, 1.6, 0.32 and 0.064 µg/mL

EC50 (read off the curve) [6] [µg/mL] | binding result [7] | binding result [8] | binding result [9] | binding result [10] | Binder | also measured
 |  |  |  |  | chimeric antibody 19-37 (full length, human IgG1) (antibody, V domains shown) VH: EVKLLESGGGLVQPKGSLKLSCAASGFTFNTYAMNWVRQAPGKGLEWVARIRSKYNNYATYYAISVKDRFTISRDDSQSILYLQMNNLKTEDTAMYYCVRHGNFGNSYISYWAYWGQGTLVTVSA VL: QAVVTQESALTTSPGETVTLTCRSSTGAVTTNNYANWVQEKPDHLFTGLIGGTRLSAPGVPARFSGSLIGDKAALTITGAQTEDEAIYFCVLWYSNLWVFGGGTKLTVLG | EC50 (read off the curve) [1]: ~100 µg/mL
 |  |  |  |  | humanized anti-CD3 antibody 15H2L3 (human IgG1) (antibody, V domains shown) VH: EVQLLESGGGLVQPGGSLRLSCAASGFTFNTYAMNWVRQAPGKGLEWVARIRSKYNNYATYYAISVKDRFTISRDNSKNTLYLQMNSLRAEDTAVYYCVKHGNFGNSYLSYWAYWGQGTLVTVSS VL: QAVVTQEPSLTVSPGGTVTLTCQSSTGAVTTNNYANWVQQKPGHAFRGLIGGTKQRAPGVPARFSGSLLGGKAALTLSGVQPEDEAEYYCVLWYSNLWVFGGGTKLTVLG | EC50 (read off the curve) [2]: ~80 µg/mL; EC50 (read off the curve) [3]: ~90 µg/mL
 |  |  |  |  | humanized anti-CD3 antibody 26H3L3 (human IgG1) (antibody, V domains shown) VH: EVQLLESGGGLVQPGGSLRLSCAASGFTFNTYAMNWVRQAPGKGLEWVARIRSKYNNYATYYADSVKDRFTISRDDSKNTLYLQMNSLRAEDTAMYYCVRHGNFGNSYISWWAYWGQGTLVTVSS VL: QAVVTQEPSLTVSPGGTVTLTCKSSTGAVTTSNYANWVQQKPGHAFRGLIGGTNLHAPGVPARFSGSLLGGKAALTLSGVQPEDEAEYYCALWYSNLWVFGGGTKLTVLG | EC50 (read off the curve) [4]: ~0.08 µg/mL; EC50 (read off the curve) [5]: ~0.1 µg/mL
~0.1 | binds | binds | binds | binds | 15H3L3-WT (15H3L3 with wild-typed IgG1 constant region and λ constant region SEQ ID NO: 32) (antibody, also called 15H3L3 antibody with wild-typed Fc region) heavy: not shown light: QAVVTQEPSLTVSPGGTVTLTCQSSTGAVTTNNYANWVQQKPGHAFRGLIGGTKQRAPGVPARFSGSLLGGKAALTLSGVQPEDEAEYYCVLWYSNLWVFGGGTKLTVLGQPKAAPSVTLFPPSSEELQANKATLVCLISDFYPGAVTVAWKADSSPVKAGVETTTPSKQSNNKYAASSYLSLTPEQWKSHRSYSCQVTHEGSTVEKTVAPT | 
~0.09 | no binding (tested: 40 µg/mL) | no binding (tested: 40 µg/mL) | no binding (tested: 40 µg/mL) |  | 15H3L3-LLN (15H3L3 with IgG1 constant region L234A/L235A/N297A) (antibody) heavy: EVQLLESGGGLVQPGGSLRLSCAASGFTFNTYAMNWVRQAPGKGLEWVARIRSKYNNYATYYAISVKDRFTISRDDSKNTLYLQMNSLRAEDTAMYYCVRHGNFGNSYLSYWAYWGQGTLVTVSSASTKGPSVFPLAPSSKSTSGGTAALGCLVKDYFPEPVTVSWNSGALTSGVHTFPAVLQSSGLYSLSSVVTVPSSSLGTQTYICNVNHKPSNTKVDKKVEPKSCDKTHTCPPCPAPEAAGGPSVFLFPPKPKDTLMISRTPEVTCVVVDVSHEDPEVKFNWYVDGVEVHNAKTKPREEQYASTYRVVSVLTVLHQDWLNGKEYKCKVSNKALPAPIEKTISKAKGQPREPQVYTLPPSREEMTKNQVSLTCLVKGFYPSDIAVEWESNGQPENNYKTTPPVLDSDGSFFLYSKLTVDKSRWQQGNVFSCSVMHEALHNHYTQKSLSLSPGK light: QAVVTQEPSLTVSPGGTVTLTCQSSTGAVTTNNYANWVQQKPGHAFRGLIGGTKQRAPGVPARFSGSLLGGKAALTLSGVQPEDEAEYYCVLWYSNLWVFGGGTKLTVLGQPKAAPSVTLFPPSSEELQANKATLVCLISDFYPGAVTVAWKADSSPVKAGVETTTPSKQSNNKYAASSYLSLTPEQWKSHRSYSCQVTHEGSTVEKTVAPT | 
~0.09 | no binding (tested: 40 µg/mL) | no binding (tested: 40 µg/mL) |  |  | 15H3L3-LLP (15H3L3 with IgG1 constant region L234A/L235A/P329G) (antibody) heavy: EVQLLESGGGLVQPGGSLRLSCAASGFTFNTYAMNWVRQAPGKGLEWVARIRSKYNNYATYYAISVKDRFTISRDDSKNTLYLQMNSLRAEDTAMYYCVRHGNFGNSYLSYWAYWGQGTLVTVSSASTKGPSVFPLAPSSKSTSGGTAALGCLVKDYFPEPVTVSWNSGALTSGVHTFPAVLQSSGLYSLSSVVTVPSSSLGTQTYICNVNHKPSNTKVDKKVEPKSCDKTHTCPPCPAPEAAGGPSVFLFPPKPKDTLMISRTPEVTCVVVDVSHEDPEVKFNWYVDGVEVHNAKTKPREEQYNSTYRVVSVLTVLHQDWLNGKEYKCKVSNKALGAPIEKTISKAKGQPREPQVYTLPPSREEMTKNQVSLTCLVKGFYPSDIAVEWESNGQPENNYKTTPPVLDSDGSFFLYSKLTVDKSRWQQGNVFSCSVMHEALHNHYTQKSLSLSPGK light: QAVVTQEPSLTVSPGGTVTLTCQSSTGAVTTNNYANWVQQKPGHAFRGLIGGTKQRAPGVPARFSGSLLGGKAALTLSGVQPEDEAEYYCVLWYSNLWVFGGGTKLTVLGQPKAAPSVTLFPPSSEELQANKATLVCLISDFYPGAVTVAWKADSSPVKAGVETTTPSKQSNNKYAASSYLSLTPEQWKSHRSYSCQVTHEGSTVEKTVAPT | 
~0.09 | binds | no binding (tested: 40 µg/mL) | binds | binds | 15H3L3-LL (15H3L3 with IgG1 constant region L234A/L235A) (antibody) heavy: not shown light: QAVVTQEPSLTVSPGGTVTLTCQSSTGAVTTNNYANWVQQKPGHAFRGLIGGTKQRAPGVPARFSGSLLGGKAALTLSGVQPEDEAEYYCVLWYSNLWVFGGGTKLTVLGQPKAAPSVTLFPPSSEELQANKATLVCLISDFYPGAVTVAWKADSSPVKAGVETTTPSKQSNNKYAASSYLSLTPEQWKSHRSYSCQVTHEGSTVEKTVAPT | 
~0.09 | no binding (tested: 40 µg/mL) | no binding (tested: 40 µg/mL) | no binding (tested: 40 µg/mL) | no binding (tested: 40 µg/mL) | 15H3L3-LLNP (15H3L3 with IgG1 constant region L234A/L235A/N297A/P329G) (antibody, also called 15H3L3-LLPN) heavy: EVQLLESGGGLVQPGGSLRLSCAASGFTFNTYAMNWVRQAPGKGLEWVARIRSKYNNYATYYAISVKDRFTISRDDSKNTLYLQMNSLRAEDTAMYYCVRHGNFGNSYLSYWAYWGQGTLVTVSSASTKGPSVFPLAPSSKSTSGGTAALGCLVKDYFPEPVTVSWNSGALTSGVHTFPAVLQSSGLYSLSSVVTVPSSSLGTQTYICNVNHKPSNTKVDKKVEPKSCDKTHTCPPCPAPEAAGGPSVFLFPPKPKDTLMISRTPEVTCVVVDVSHEDPEVKFNWYVDGVEVHNAKTKPREEQYASTYRVVSVLTVLHQDWLNGKEYKCKVSNKALGAPIEKTISKAKGQPREPQVYTLPPSREEMTKNQVSLTCLVKGFYPSDIAVEWESNGQPENNYKTTPPVLDSDGSFFLYSKLTVDKSRWQQGNVFSCSVMHEALHNHYTQKSLSLSPGK light: QAVVTQEPSLTVSPGGTVTLTCQSSTGAVTTNNYANWVQQKPGHAFRGLIGGTKQRAPGVPARFSGSLLGGKAALTLSGVQPEDEAEYYCVLWYSNLWVFGGGTKLTVLGQPKAAPSVTLFPPSSEELQANKATLVCLISDFYPGAVTVAWKADSSPVKAGVETTTPSKQSNNKYAASSYLSLTPEQWKSHRSYSCQVTHEGSTVEKTVAPT | 

Reference: patent publication US20220195043A1 (BEIJING MABWORKS BIOTECH, published 2022)
